Measurements reported in US12559863B2, “Macrocyclic modulators of disease associated protein misfolding and aggregation” (RESQ BIOTECH, priority 2017, dated 2026).

Molecular target: T1, Aβ42-GFP (Homo sapiens, UniProt P05067)
T1 construct: a chimeric fusion of the human Aβ(1-42) peptide (Aβ42) with GFP; expressed in transfected cells; host or cells: E. coli BL21(DE3)
Assay: High-throughput sequencing of pSICLOPPS vectors isolated after bacterial sorting for enhanced Aβ42-GFP fluorescence
Conditions: for Reads/Total TXXXR reads (%) / Reads/Total pentapeptide reads (%) / Reads/Total peptide reads (%): after the second round of bacterial sorting; for Reads/Total TXXXR reads (%): relative to total TXXXR reads; for Reads/Total pentapeptide reads (%): relative to total pentapeptide reads; for Reads/Total peptide reads (%): relative to total peptide reads; for Number of reads: high-throughput sequencing of isolated pSICLOPPS-NuX1X2X3-X5 vectors after the second round of bacterial sorting for enhanced Aβ42-GFP fluorescence, selected cyclo-TXXXR pentapeptides
Excerpt: On the other hand, very few bioactive sequences resembling AβC5-34 should exist. […] The peptide-encoding vectors contained in these clones were isolated and the peptide-encoding region of approximately 5.6 million of these plasmids was sequenced using an Ion Torrent high-throughput sequencing platform. […] First, pentapeptides were the dominant peptide species within the sorted pool (FIG. 12D), in agreement with previous observations (FIG. 8G). Second, the most prevalent motif among the selected pentapeptide sequences were TXXXR pentapeptides (˜47% of the selected pentapeptide-encoding pSICLOPPS plasmids; ˜42% of the unique selected pentapeptide sequences) (Table 1), in accordance with previous observations (FIG. 8G). […] At position 2, Thr, Ala, and Val were preferred, while aromatic residues (Phe, Trp, Tyr) were completely excluded from the selected TXXXR peptide pool, in full agreement with our site-directed mutagenesis studies. At the highly variable position 3, the complete absence of the negatively charged amino acids Glu and Asp among the selected sequences was notable (FIG. 12E). […] It is noteworthy, that Lys and Gln residues were practically absent from all positions, while the β sheet-breaking amino acid Pro that is typically included in designed peptide-based inhibitors of amyloid aggregation appeared with strikingly low frequencies (FIG. 12E).
Electrocompetent E. coli BL21(DE3) cells (Novagen, USA) carrying either the expression vector pETSOD1(A4V)-GFP, which produces SOD1(A4V)-GFP under control of the strong bacteriophage T7 promoter, or pETAβ42-GFP, which produces Aβ42-GFP under control of the T7 promoter, were co-transformed with the combined pSICLOPPS-NuX1X2X3-X5 vector library. Approximately 10^8 transformants carrying both the vector library and either pETSOD1(A4V)-GFP or pETAβ42-GFP vectors were harvested, pooled together, and grown in Luria-Bertani (LB) liquid medium containing either 0.005% (pETSOD1(A4F)-GFP) or 0.002% (pETAβ42-GFP) L-arabinose—the inducer of cyclic peptide production—at 37° C. with shaking. When the optical density at 600 nm (OD600) of the bacterial culture was about 0.5, 0.01 (pETSOD1(A4F)-GFP) or 0.1 (pETAβ42-GFP) mM isopropyl-β-D-thiogalactoside (IPTG) was added to the medium to induce overexpression of the reporter. […] The isolated cells were re-grown and screened for additional rounds in an identical manner until the desired enrichment in high-fluorescence clones was achieved.
For the characterization of the initial libraries, a combined pSICLOPPS-NuX1X2X3-X5 vector library was prepared containing approximately equal amounts of each one of the tetra-, penta- and hexapeptide sub-libraries. These samples were digested with NcoI and BsrGI and the resulting ˜250 bp product that contained the variable peptide-encoding region was isolated. High-throughput sequencing analysis was performed using an Ion Torrent high-throughput sequencing platform. From the obtained data, all the sequences with mismatches outside of the variable peptide-encoding region were removed, and only the 12-, 15- or 18-bp-long peptide-encoding sequences were subjected to further analysis. The libraries of the selected cyclic peptides that enhance either SOD1(A4V)-GFP or Aβ42-GFP fluorescence were sequenced in a similar manner, with the only exception being that all sequences including stop codons were discarded from subsequent analysis.

Substance	Reads/Total TXXXR reads (%)	Reads/Total pentapeptide reads (%)	Reads/Total peptide reads (%)	Number of reads
AβC5-2 (TTYAR; cyclic)	16.023%	7.506%	6.727%	304,753
AβC5-3 (TTVDR; cyclic)	11.276%	5.282%	4.734%	214,461
AβC5-5 (TTTWR; cyclic pentapeptide)	9.228%	4.323%	3.874%	175,510
AβC5-7 (TTLHR; cyclic pentapeptide)	7.046%	3.301%	2.958%	134,018
AβC5-12 (TTWAR; cyclic)	3.466%	1.624%	1.455%	65,929
AβC5-13 (TALDR; cyclic)	3.301%	1.547%	1.386%	62,792
AβC5-15 (TANVR; cyclic)	2.516%	1.179%	1.056%	47,855
AβC5-17 (TTTAR; cyclic)	2.110%	0.989%	0.886%	40,135
AβC5-18 (TTIAR; cyclic)	1.953%	0.915%	0.820%	37,150
AβC5-20 (TTISR; cyclic)	1.948%	0.912%	0.818%	37,044
AβC5-21 (TTWCR; cyclic)	1.908%	0.894%	0.801%	36,295
AβC5-22 (TVLWR; cyclic)	1.883%	0.882%	0.791%	35,820
AβC5-26 (TAWCR; cyclic)	1.493%	0.699%	0.627%	28,391
AβC5-27 (TTSAR; cyclic)	1.482%	0.694%	0.622%	28,188
AβC5-29 (TTLER; cyclic)	1.447%	0.678%	0.607%	27,514
AβC5-30 (TSTAR; cyclic)	1.444%	0.676%	0.606%	27,456
AβC5-35 (TVRDR; head-to-tail cyclic)	1.337%	0.626%	0.561%	25,428
AβC5-41 (TGWAR; head-to-tail cyclic)	1.145%	0.537%	0.481%	21,784
AβC5-44 (TAWAR; cyclic pentapeptide)	1.094%	0.512%	0.459%	20,807
AβC5-45 (TTWVR; cyclic pentapeptide)	1.094%	0.512%	0.459%	20,798

Substance	Reads/Total TXXXR reads (%)	Reads/Total pentapeptide reads (%)	Reads/Total peptide reads (%)	Number of reads
AβC5-46 (TLLWR; cyclic pentapeptide)	1.049%	0.492%	0.440%	19,957
AβC5-47 (TTIDR; cyclic pentapeptide)	1.038%	0.486%	0.436%	19,735
AβC5-50 (TALAR; cyclic pentapeptide)	1.022%	0.479%	0.429%	19,433
AβC5-51 (TSVDR; cyclic pentapeptide)	1.012%	0.474%	0.425%	19,249
AβC5-53 (TTVWR; cyclic pentapeptide)	0.982%	0.460%	0.412%	18,669
AβC5-66 (TTHWR; cyclic pentapeptide)	0.752%	0.352%	0.316%	14,304
AβC5-67 (TARDR; cyclic pentapeptide)	0.747%	0.350%	0.314%	14,213
AβC5-73 (TTRDR; cyclic pentapeptide)	0.678%	0.318%	0.285%	12,894
AβC5-80 (TSVHR; cyclic)	0.535%	0.251%	0.225%	10,181
AβC5-89 (TATDR; cyclic)	0.420%	0.197%	0.176%	7,984
AβC5-94 (TVLFR; cyclic)	0.391%	0.183%	0.164%	7,442
AβC5-102 (TTYNR; cyclic)	0.319%	0.149%	0.134%	6,067
AβC5-105 (TVRWR; cyclic)	0.287%	0.134%	0.120%	5,450
AβC5-117 (TTRCR; cyclic)	0.223%	0.104%	0.094%	4,237
AβC5-118 (TTFWR; cyclic)	0.222%	0.104%	0.093%	4,216
AβC5-121 (TIKDR; cyclic)	0.209%	0.098%	0.088%	3,970
AβC5-123 (TTVHR; cyclic)	0.177%	0.083%	0.074%	3,371
AβC5-126 (TTLLR; cyclic)	0.159%	0.074%	0.067%	3,016
AβC5-129 (TTLFR; cyclic)	0.138%	0.065%	0.058%	2,630
